Reference: US11807881B2, “Polypeptide, fusion polypeptide, and antibiotic against gram-negative bacteria comprising same” (priority 2020, dated 2023)

How the values were obtained:
Salmonella enteritidis = experiment: Spot test (halo zone); type: cell-based; design: key: ‘◯’ means production of the halo zone; conditions: S. enteritidis ATCC 13076
Source text: (§1) In the present example, in order to investigate a target bacteria spectrum of the bacteriophage PBPA90 selected in the Examples 1.1 and 1.2 and endolysin LNT101 separated and purifying in the Example 1.3, the antibacterial activity against gram negative bacterium such as Pseudomonas aeruginosa ATCC13388, ATCC9027, ATCC10145, ATCC15692, ATCC15522, ATCC25619, ATCC27853, CCARM2134, CCARM2200, CCARM2029, CCARM2144, CCARM2298, CCARM2326, PR01957, E. coli ATCC8739, Enterobacter cloacae CCARM0252, Klebsiella pneumoniae KCTC2261, Klebsiella aerogenes CCARM16006, Campylobacter jejuni KCTC5327, Cronobacter sakazakii KCTC2949, Salmonella typhimurium ATCC14028, Salmonella enteritidis ATCC13076 was tested.
(§2) The target bacteria spectrum of the bacteriophage PBPA90 and endolysin LNT101 was confirmed by a spot test. For the spot test, bacterium sterilized in 4 ml top agar (1% Tryptone, 0.5% Yeast extract, 0.5% NaCl, 0.7% agar) of 1×10^11 CFU/200 μl were added and poured to a LB plate. After hardening the top agar, the bacteriophage PBPA90 10 μl (1×10^8 PFU/ml) or LNT101 10 μl (2 mg/ml) was spotted, and it was incubated at 37° C. for 18 hours.

E. coli [1] = experiment: Spot test (halo zone); type: cell-based; design: key: ‘◯’ means production of the halo zone; conditions: E. coli ATCC 8739
Source text: as §1, §2

Klebsiella aerogenes = experiment: Spot test (halo zone); type: cell-based; design: key: ‘◯’ means production of the halo zone; conditions: K. aerugenes CCARM 16006
Source text: as §1, §2

Enterobacter cloacae = experiment: Spot test (halo zone); type: cell-based; design: key: ‘◯’ means production of the halo zone; conditions: E. cloacae CCARM 0252
Source text: as §1, §2

Cronobacter sakazakii = experiment: Spot test (halo zone); type: cell-based; design: key: ‘◯’ means production of the halo zone; conditions: C. sakazakii KCTC 2949
Source text: as §1, §2

Campylobacter jejuni = experiment: Spot test (halo zone); type: cell-based; design: key: ‘◯’ means production of the halo zone; conditions: C. jejuni KCTC 5327
Source text: as §1, §2

Pseudomonas aeruginosa = experiment: Spot test (halo zone); type: cell-based; design: key: ‘◯’ means production of the halo zone
Source text: as §1, §2

[2] = tested on: Acinetobacter baumannii ATCC 19606; experiment: Acinetobacter baumannii systemic infection mouse model, viability; type: in vivo; conditions: ICR male mice; LNT103 20 mpk and 100 mpk, subcutaneous injection 1 hour and 4 hours after infection; comparative colistin 20 mpk
Description: For in vivo effectivity evaluation of the fusion polypeptide LNT103, the viability was confirmed in an Acinetobacter baumannii ATCC 19606 systemic infection mouse model was confirmed.
The process of progressing an animal experiment was as follows. Mice were used when ICR male 4-week-old mice were purchased and a one-week adaptation period was passed, and the weight was 20˜21 g at 5-6 weeks of age. The Acinetobacter bacteria were mixed with 10% mucin at 1:1, and 0.5 ml of 2×10^8 CFU/ml (5% mucin) of the bacterial solution was inoculated intraperitoneally into mice. In 1 hour and 4 hours after infection, LNT103 20 mpk and LNT103 100 mpk, and colistin 20 mpk as a comparative group were administered, respectively, through a subcutaneous injection.

E. coli [3] = experiment: MIC and MBC, broth microdilution in CAA media; type: cell-based
Description: (§3) In addition, MIC (Minimal Inhibitory Concentration) and MBC (Minimal Bactericidal Concentration) of the fusion polypeptide LNT103 were measured. […] Specifically, the LNT103 was treated at a concentration of 64 μg/ml to a 96 well microplate row A, and the LNT103 was treated at a concentration where serial dilution was performed by ½ in rows B-G. To the row H, LNT103 was not treated. After that, the corresponding bacterium strain (type or QC, CCARM and clinical separation strain; See Tables 2-4) was treated in an amount of 5×10^5 CFU/ml, total 100 μl in all wells. Then, it was cultured at 37° C. for 18 hours. MIC was determined to be the lowest concentration at which no colonies were identified by confirming the number of the colonies in each well.

P. aeruginosa = experiment: MIC and MBC, broth microdilution in CAA media; type: cell-based
Description: as §3

B1: LNT101: endolysin derived from bacteriophage PBPA90, amino acid sequence SEQ ID NO: 1 (259 aa), purified with 6× His tag (protein)
chain: MGTVLKRGDRGSAVEDLQMKLRVAGYAVSADGIFGGDTEKAVRDFQASKALVVDGKVGPATLAELAKSATVPAKWEAIPFPTANKSRSAAMPTLNAVGAMTGTDSRLLATFASIESAFDYTVKASTSSATGWFQFLDATWDDMIKAHGSKYGIPKDPTRALRKDPRANALMGAEFLKGNAAVLRPVINREPSDTDLYLAHFLGAGGAKKFLSADQKTLGEVLFPKPAKANPSIFSNKGVPRTLAEIYKLFEDKVSKHRA
modifications: 6xHis tag; synthetic_Endolysin LNT101
Salmonella enteritidis
  production of the halo zone: ◯
E. coli [1]
  production of the halo zone: ◯
Klebsiella aerogenes
  production of the halo zone: ◯
Enterobacter cloacae
  production of the halo zone: ◯
Cronobacter sakazakii
  production of the halo zone: ◯
Campylobacter jejuni
  production of the halo zone: ◯
Pseudomonas aeruginosa; P. aeruginosa ATCC 9027
  production of the halo zone: ◯
Pseudomonas aeruginosa; P. aeruginosa ATCC 10145
  production of the halo zone: ◯
Pseudomonas aeruginosa; P. aeruginosa ATCC 13388, 10 μl (2 mg/ml), 37° C. 18 hours
  production of the halo zone: ◯
Pseudomonas aeruginosa; P. aeruginosa ATCC 15522
  production of the halo zone: ◯
Pseudomonas aeruginosa; P. aeruginosa ATCC 15692
  production of the halo zone: ◯
Pseudomonas aeruginosa; P. aeruginosa ATCC 25619
  production of the halo zone: ◯
Pseudomonas aeruginosa; P. aeruginosa ATCC 27853
  production of the halo zone: ◯
Pseudomonas aeruginosa; P. aeruginosa CCARM 2029
  production of the halo zone: ◯
Pseudomonas aeruginosa; P. aeruginosa CCARM 2134
  production of the halo zone: ◯
Pseudomonas aeruginosa; P. aeruginosa CCARM 2144
  production of the halo zone: ◯
Pseudomonas aeruginosa; P. aeruginosa CCARM 2200
  production of the halo zone: ◯
Pseudomonas aeruginosa; P. aeruginosa CCARM 2298
  production of the halo zone: ◯
Pseudomonas aeruginosa; P. aeruginosa CCARM 2326
  production of the halo zone: ◯
Pseudomonas aeruginosa; P. aeruginosa PR1957
  production of the halo zone: ◯

B2: LNT103: fusion polypeptide [Cecropin A]-[linker (GSGSGS)]-[endolysin LNT102]; SEQ ID NO: 15 (MAS, His tag) used in the tests (protein)
chain: MASKWKLFKKIEKVGQNIRDGIIKAGPAVAVVGQATQIAKGSGSGSMGTVLKRGDRGSAVEDLQMKLNVAGYNLSADGIFGGDTEKAVRDVQAGAGLVVDGKVGPKTLYAIAKSATVPAKWEAIPFPTANKSRSAAMPTLNAVGAMTGVDSRLLATFASIESAFDYTVKAKTSSATGWFQFLDATWDDMIKAYGSKYGIPKDPTRALRKDPRANALMGAEFIKGNAAVLRPVINREPSDTDLYLAHFLGAGGAKKFLSADQKTLGEVLFPKPAKANPSIFSNKGVPRTLAEIYKLFEDKVSKHRALEHHHHHH
modifications: synthetic_Fusion Polypeptide LNT103 with MAS, His tag, and extra sequence
[2]
  viability for 96 hours: higher viability compared to the non-administration group (control) and comparative group (colistin administration group)
E. coli [3]; E. coli ATCC 8739
  MBC: 8 µg/mL
  MIC: 8 µg/mL
E. coli [3]; E. coli CCARM 1A746
  MBC: 8 µg/mL
  MIC: 8 µg/mL
E. coli [3]; E. coli CCARM 1B684
  MBC: 8 µg/mL
  MIC: 4 µg/mL
E. coli [3]; E. coli CCARM 1G448
  MBC: 4 µg/mL
  MIC: 4 µg/mL
E. coli [3]; E. coli CCARM 1460
  MBC: 4 µg/mL
  MIC: 4 µg/mL
E. coli [3]; E. coli F340
  MBC: 16 µg/mL
  MIC: 16 µg/mL
E. coli [3]; E. coli F481
  MBC: 8 µg/mL
  MIC: 8 µg/mL
E. coli [3]; E. coli F485
  MBC: 8 µg/mL
  MIC: 4 µg/mL
E. coli [3]; E. coli F524
  MBC: 16 µg/mL
  MIC: 16 µg/mL
E. coli [3]; E. coli F716
  MBC: 32 µg/mL
  MIC: 16 µg/mL
E. coli [3]; E. coli F852
  MBC: 32 µg/mL
  MIC: 16 µg/mL
E. coli [3]; E. coli F859
  MBC: 32 µg/mL
  MIC: 32 µg/mL
E. coli [3]; E. coli F862
  MBC: 4 µg/mL
  MIC: 4 µg/mL
E. coli [3]; E. coli FORC81
  MBC: 4 µg/mL
  MIC: 4 µg/mL
E. coli [3]; E. coli UPEC 3042
  MBC: 32 µg/mL
  MIC: 32 µg/mL
E. coli [3]; E. coli UPEC 3181
  MBC: 8 µg/mL
  MIC: 8 µg/mL
P. aeruginosa; P. aeruginosa ATCC 9027
  MBC: 16 µg/mL
  MIC: 16 µg/mL
P. aeruginosa; P. aeruginosa ATCC 10145
  MBC: 32 µg/mL
  MIC: 16 µg/mL
P. aeruginosa; P. aeruginosa ATCC 15522
  MBC: 16 µg/mL
  MIC: 16 µg/mL
P. aeruginosa; P. aeruginosa ATCT 13388
  MBC: 16 µg/mL
  MIC: 8 µg/mL
P. aeruginosa; P. aeruginosa CCARM 2134
  MBC: 16 µg/mL
  MIC: 8 µg/mL
P. aeruginosa; P. aeruginosa CCARM 2144
  MBC: 32 µg/mL
  MIC: 32 µg/mL
P. aeruginosa; P. aeruginosa F102
  MBC: 8 µg/mL
  MIC: 8 µg/mL
P. aeruginosa; P. aeruginosa F141
  MBC: 8 µg/mL
  MIC: 8 µg/mL
P. aeruginosa; P. aeruginosa F265
  MBC: 16 µg/mL
  MIC: 16 µg/mL
P. aeruginosa; P. aeruginosa F341
  MBC: 8 µg/mL
  MIC: 8 µg/mL
P. aeruginosa; P. aeruginosa F388
  MBC: 8 µg/mL
  MIC: 8 µg/mL
P. aeruginosa; P. aeruginosa PAO1(ATCC 15692)
  MBC: 16 µg/mL
  MIC: 8 µg/mL
